Results from the supplement of paper PMC9170038.

Test system: MS2 coat protein
Assay: apparent KD of MS2 coat protein; higher = weaker reporter binding
Conditions: Eterna round: R107; input ligand: theophylline 20 uM
Protocol: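 RNA-MaP round R107: designed RNA switches with theophylline, tryptophan, arginine or FMN aptamers are transcribed on-chip within common flanks. They are titrated with SNAP-549-labelled MS2 coat protein in RNA-MaP buffer (100 mM Tris pH 7.5, 80 mM KCl, 4 mM MgCl2), without ligand or with the indicated ligand. Median apparent KD per design.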

Point of comparison: “UGUGCAUGAGUUGUAAAAGCUCAUGGGCAUCGAGGACCGGUACGGCCGCCACUCGGCUGUACAUGAGGAUCACCCAUGUCAGGGU [#1 Same State - Tryptophan A Attempt #22 (HarryS)]”, “apparent KD of MS2 coat protein” value 609 nM. Against it:
- GUUGUAUACUCGGCCGCCACUGAGAGAGUCAUGUGAACAUGAGGAUCACCCAUGUAAUAUAUAUACAGGACCGGGAGUGUGGUAA [4.H] — 37-fold lower, 16.5 nM
- GACUAUAUGAUAUGUCAGAAAUCCUCGAAACGAGGACCGGUACGGCCGCCACUCGAGUGAUCAACAUGAGGAUCACCCAUGUAAA [Tryp A Ex t1] — 13-fold lower, 47.5 nM
- ACAUGAAGAUUAAUCGUGGGCAUACUCGAUACCAGUAUUUUAACCUACCCUUGGCAGCGACAUGAGGAUCACCCAUGUGAGAUGA [XTheo A #8] — 26-fold lower, 23.5 nM
- CGUGGUGGGACGGAUACCAGCCACCGCGGCAACGCAACAUGAGGAUCACCCAUGUUGGGUGGCCCUUGGCAGCUGUCCUGCGGCG [#1 Same State - Theophylline B Attempt #26 (HarryS)] — 41-fold lower, 15 nM
- AUCGCACCUGGUGAUACCAGCGUUUGCUCGCGACAUGAGGAUCACCCAUGUGGCCAGUGAUGCCCUUGGCAGCAUGGUCGGUGCA [Same State - Theophylline B (Freestyle 27)] — 2-fold lower, 309 nM
- CCAUAUGUAACUGAUACCAGUGUACUGACAUGAGGAUCACCCAUGUUGGGUUUUGUUGUACACCCUUGGCAGCAGAAUCAUAUGG [AstrosExyTheB#17] — 8.3-fold lower, 73.6 nM
- GUAACACAUGAGGAUCACCCAUGUUCCGAUACCAGUAUUGAAGAUUACCCUUGGCAGCGGGUAGGUCGGAGUGGACGGCCCGAGC [theeternabot_sameState_MS2_Theo_A_8] — 24-fold lower, 25 nM
- AGACAUGAGGAUCACCCAUGUAGCAUGGAUACCAGAUGUAGAUUAGUCCCUUGGCAGCUGUGGUGAAGUGAUGCAUUGCUCCUAG [Exclusion - Theophylline A (Freestyle 2)] — 8.2-fold lower, 74.3 nM
- AACCGAGGCUAUCCUCUCCGCCUAUGUGAUACCAGAAUAAUUUUAUUCCCUUGGCAGCAUGACAUGAGGAUCACCCAUGUCUCUU [SSTheo A #11] — 31-fold lower, 19.4 nM
- UGUAUGUGAUCUGAUACCAGUCCAACUGGUAAAACUUGAGGAUCACCCAAGUAAAAUUGGGACCCUUGGCAGCAGAUCGCAUACU — 1.7-fold lower, 360 nM
- UUACAUGAGGAUCACCCAUGUCAUACAGAAGGAGCGUCACAUAAGACAGGUAGGUCGCUGUUAUUUAAUACUAUUAUAUCCUCUA [JR_Nu_ExcArginiA_Sub027] — 14-fold lower, 44.9 nM
- ACGAACGCACCUGAGGAUCACCCAGGUGAUACCAGCCUGGAAACAGGCCCUUGGCAGCACCUAAAAUAAAGGUAACGUUCGAAUA [TheoAX7 #MicroSwitchBubble #AlternativeMS2] — 3.7-fold lower, 165 nM
- GGUACAUGAGGAUCACCCAUGUGUCAUGAUACCAGACAUGAAAAUGUCCCUUGGCAGCAUGCCAGACGGCCGCGUUUAGCGGCCG [Oresin] — 31-fold lower, 19.7 nM
- AUACAUGAGGAUCACCCAUGUAUAGUUGAAGGAGCGACCAGAGGGUCAGGUAGGUCGCAACACAUGAGGAUCACCCAUGUAUCGA [DOUBLE!!! :-D #7] — 12-fold lower, 52.9 nM

Same assay, conditions: Eterna round: R107; input ligand: theophylline 2 mM

Point of comparison: “UGUAUGUGAUCUGAUACCAGUCCAACUGGUAAAACUUGAGGAUCACCCAAGUAAAAUUGGGACCCUUGGCAGCAGAUCGCAUACU”, “apparent KD of MS2 coat protein” value 81.7 nM. Against it:
- GGGAGGUAGGCGGCCGCCACUGAUUUUCAUAUAUAUAUAACAUGAGGAUCACCCAUGUAGAUAUGCAGGACCGGGCCUGUUUUUU [aaaK] — 3.1-fold lower, 26.3 nM
- GGAUAGGACACGGCCGCCACUAGCUAGGAUACUAGCAACAUUUCCUCAUAUGAGGAUCACCCAUAUAGGACCGGGUGUCCUAUCG — 5.8-fold higher, 471 nM
- ACAUGAGGAUCACCCAUGUAUGACUAUCCUCGAGGACCGGUACGGCCGCCACUCGAACGAGUGGCUCGCGAGUGCGCACUCGCGG [5'end-1] — 6.3-fold lower, 12.9 nM
- GGGCAAGAGGGAAGGAGCGUCAGCUGAGUCACAUGAGGAUCACCCAUGUCGCACAUAGUGUGACAGGUAGGUCGCCCUCUACCCU [Esceinan] — within 1.5-fold, 107 nM
- AGACUGUCUUCGGACAGUCCGGACAGCCCGCGAGGACCGGUACGGCCGCCACUCGCGUGAGGAUCACCCAUGCGAGGCUGUCCGA [Omei Tryp A Exc A v1] — 1.8-fold lower, 46 nM
- UUCAGCUAGUCGGCCGCCACUACAUGAGGAUCACCCAUGUAAUCCUAACACUGCUUCGGCAGUGGUAGGACCGGGACUAGCUGAG — 6.7-fold lower, 12.2 nM
- CCUCAAUAGACGGCCGCCACUGAAACAUGAGGAUACAUGAGGAUCACCCAUGUGGGUGUGUUACGCAGGACCGGGUCAAGACCCG [Tryp B SS t1] — 16-fold higher, 1280 nM
- UGGUAUGUAGGAAGGAGCGCAUACUUCACAUGAGGAUCACCCAUGUCAAGACGUGAGUCAGUGCAGGUAGGUCGCCUAGUUAUGA [Same State - Arginine B (Freestyle 21)] — 2.3-fold lower, 36.1 nM
- GCUAGGUCAUCGGCCGCCACUAUUAGUGGUUCGAACAUGAGGAUCACCCAUGUGCCACAUGCGCAUAGGACCGGGAUGACCUAGC [SSTB NP+V+V2 #8] — 6-fold lower, 13.7 nM
- AUAUAUACAUGAGGAUCACCCAUGUUAUUUCGAGGACCGGUACGGCCGCCACUCGAUAGAGUAGAAGUAAAUUUUGAUUCAUGUA [JR_SSTryptoA_Sub009] — 3.5-fold lower, 23.5 nM
- UUGAUCAUAUAUGAAAACAUAUAUGCAGAAGGAGCGUGAUAAAACACAGGUAGGUCGCUGAAGGGAACAUGAGGAUCACCCAUGU [AstrosSSArgA#3] — 2.4-fold lower, 34.1 nM
- GCAUCCUAGUCGGCCGCCACUGGUAUGAACACCUUCACCCGUGUGCACAUGAGGAUCACCCAUGUUAGGACCGGGACUAGGAUGC [SSTryp B #20] — 8.4-fold lower, 9.67 nM
- GAUCGAUCAUAGUACGAUCGUUUUGUGGAAGGAGCGCAGAGGACUGCAGGUAGGUCGCCACAUGAGGAUCACCCAUGUCAGGAUU [XARG-A 24] — within 1.5-fold, 122 nM
- GUUGUAUACUCGGCCGCCACUGAGAGAGUCAUGUGAACAUGAGGAUCACCCAUGUAAUAUAUAUACAGGACCGGGAGUGUGGUAA [4.H] — 5.7-fold lower, 14.4 nM
- UGUGCAUGAGUUGUAAAAGCUCAUGGGCAUCGAGGACCGGUACGGCCGCCACUCGGCUGUACAUGAGGAUCACCCAUGUCAGGGU [#1 Same State - Tryptophan A Attempt #22 (HarryS)] — 13-fold higher, 1100 nM
- GACUAUAUGAUAUGUCAGAAAUCCUCGAAACGAGGACCGGUACGGCCGCCACUCGAGUGAUCAACAUGAGGAUCACCCAUGUAAA [Tryp A Ex t1] — 2.9-fold lower, 28.4 nM
- UUACAUGAGGAUCACCCAUGUCAUACAGAAGGAGCGUCACAUAAGACAGGUAGGUCGCUGUUAUUUAAUACUAUUAUAUCCUCUA [JR_Nu_ExcArginiA_Sub027] — 2.3-fold lower, 35.2 nM
- ACGAACGCACCUGAGGAUCACCCAGGUGAUACCAGCCUGGAAACAGGCCCUUGGCAGCACCUAAAAUAAAGGUAACGUUCGAAUA [TheoAX7 #MicroSwitchBubble #AlternativeMS2] — 2.1-fold higher, 173 nM
- GGUACAUGAGGAUCACCCAUGUGUCAUGAUACCAGACAUGAAAAUGUCCCUUGGCAGCAUGCCAGACGGCCGCGUUUAGCGGCCG [Oresin] — 4.2-fold lower, 19.6 nM
- AUACAUGAGGAUCACCCAUGUAUAGUUGAAGGAGCGACCAGAGGGUCAGGUAGGUCGCAACACAUGAGGAUCACCCAUGUAUCGA [DOUBLE!!! :-D #7] — 1.7-fold lower, 47.5 nM

Same assay, conditions: Eterna round: R107; input ligand: tryptophan 2.4 mM

Point of comparison: “UGUAUGUGAUCUGAUACCAGUCCAACUGGUAAAACUUGAGGAUCACCCAAGUAAAAUUGGGACCCUUGGCAGCAGAUCGCAUACU”, “apparent KD of MS2 coat protein” value 371 nM. Against it:
- GGAUAGGACACGGCCGCCACUAGCUAGGAUACUAGCAACAUUUCCUCAUAUGAGGAUCACCCAUAUAGGACCGGGUGUCCUAUCG — 3.1-fold higher, 1140 nM
- ACAUGAGGAUCACCCAUGUAUGACUAUCCUCGAGGACCGGUACGGCCGCCACUCGAACGAGUGGCUCGCGAGUGCGCACUCGCGG [5'end-1] — 32-fold lower, 11.6 nM
- GGGCAAGAGGGAAGGAGCGUCAGCUGAGUCACAUGAGGAUCACCCAUGUCGCACAUAGUGUGACAGGUAGGUCGCCCUCUACCCU [Esceinan] — 4.2-fold lower, 89.3 nM
- AGACUGUCUUCGGACAGUCCGGACAGCCCGCGAGGACCGGUACGGCCGCCACUCGCGUGAGGAUCACCCAUGCGAGGCUGUCCGA [Omei Tryp A Exc A v1] — 5.3-fold lower, 69.9 nM
- UUACAUGAGGAUCACCCAUGUCAUAAUGAUACCAGAUAGUUAAUGAUCCCUUGGCAGCAUAAUACCUAGACAUUUAAGUCAUAGG [Aa] — 6.6-fold lower, 56.2 nM
- UGGUAUGUAGGAAGGAGCGCAUACUUCACAUGAGGAUCACCCAUGUCAAGACGUGAGUCAGUGCAGGUAGGUCGCCUAGUUAUGA [Same State - Arginine B (Freestyle 21)] — 11-fold lower, 33.7 nM
- UUGAUCAUAUAUGAAAACAUAUAUGCAGAAGGAGCGUGAUAAAACACAGGUAGGUCGCUGAAGGGAACAUGAGGAUCACCCAUGU [AstrosSSArgA#3] — 14-fold lower, 26.8 nM
- GAUCGAUCAUAGUACGAUCGUUUUGUGGAAGGAGCGCAGAGGACUGCAGGUAGGUCGCCACAUGAGGAUCACCCAUGUCAGGAUU [XARG-A 24] — 11-fold lower, 32.8 nM
- UUAGAUAUGACGGAUACCAGCGUGUUGUAGAACAUGAGGAUCACCCAUGUAGUGAUCGUGCGCCCUUGGCAGCUGGUAUGUUUGG [7.V] — within 1.5-fold, 501 nM
- GUUGUAUACUCGGCCGCCACUGAGAGAGUCAUGUGAACAUGAGGAUCACCCAUGUAAUAUAUAUACAGGACCGGGAGUGUGGUAA [4.H] — 23-fold lower, 15.8 nM
- GACUAUAUGAUAUGUCAGAAAUCCUCGAAACGAGGACCGGUACGGCCGCCACUCGAGUGAUCAACAUGAGGAUCACCCAUGUAAA [Tryp A Ex t1] — 6.7-fold lower, 55.3 nM
- ACAUGAAGAUUAAUCGUGGGCAUACUCGAUACCAGUAUUUUAACCUACCCUUGGCAGCGACAUGAGGAUCACCCAUGUGAGAUGA [XTheo A #8] — 16-fold lower, 22.8 nM
- CGUGGUGGGACGGAUACCAGCCACCGCGGCAACGCAACAUGAGGAUCACCCAUGUUGGGUGGCCCUUGGCAGCUGUCCUGCGGCG [#1 Same State - Theophylline B Attempt #26 (HarryS)] — 33-fold lower, 11.4 nM
- AUCGCACCUGGUGAUACCAGCGUUUGCUCGCGACAUGAGGAUCACCCAUGUGGCCAGUGAUGCCCUUGGCAGCAUGGUCGGUGCA [Same State - Theophylline B (Freestyle 27)] — within 1.5-fold, 314 nM
- CCAUAUGUAACUGAUACCAGUGUACUGACAUGAGGAUCACCCAUGUUGGGUUUUGUUGUACACCCUUGGCAGCAGAAUCAUAUGG [AstrosExyTheB#17] — 6.9-fold lower, 53.9 nM
- GUAACACAUGAGGAUCACCCAUGUUCCGAUACCAGUAUUGAAGAUUACCCUUGGCAGCGGGUAGGUCGGAGUGGACGGCCCGAGC [theeternabot_sameState_MS2_Theo_A_8] — 16-fold lower, 23.7 nM
- AGACAUGAGGAUCACCCAUGUAGCAUGGAUACCAGAUGUAGAUUAGUCCCUUGGCAGCUGUGGUGAAGUGAUGCAUUGCUCCUAG [Exclusion - Theophylline A (Freestyle 2)] — 7.4-fold lower, 50.1 nM
- AACCGAGGCUAUCCUCUCCGCCUAUGUGAUACCAGAAUAAUUUUAUUCCCUUGGCAGCAUGACAUGAGGAUCACCCAUGUCUCUU [SSTheo A #11] — 21-fold lower, 17.3 nM
- UUACAUGAGGAUCACCCAUGUCAUACAGAAGGAGCGUCACAUAAGACAGGUAGGUCGCUGUUAUUUAAUACUAUUAUAUCCUCUA [JR_Nu_ExcArginiA_Sub027] — 11-fold lower, 32.8 nM
- ACGAACGCACCUGAGGAUCACCCAGGUGAUACCAGCCUGGAAACAGGCCCUUGGCAGCACCUAAAAUAAAGGUAACGUUCGAAUA [TheoAX7 #MicroSwitchBubble #AlternativeMS2] — 6-fold lower, 61.9 nM
- GGUACAUGAGGAUCACCCAUGUGUCAUGAUACCAGACAUGAAAAUGUCCCUUGGCAGCAUGCCAGACGGCCGCGUUUAGCGGCCG [Oresin] — 23-fold lower, 16.3 nM
- AUACAUGAGGAUCACCCAUGUAUAGUUGAAGGAGCGACCAGAGGGUCAGGUAGGUCGCAACACAUGAGGAUCACCCAUGUAUCGA [DOUBLE!!! :-D #7] — 11-fold lower, 34.6 nM
